Columns and labels:
POLR2G [1] = target: T1, POLR2G (human, UniProt P62487 1-172); assay: ELISA; no detectable binding, up to 200 nM; 100 mM K+; ELISA: oligos folded in Tris-HCl pH 7.4, 100 mM KCl; ELISA buffer 100 mM KCl, 50 mM KH2PO4 pH 7.4, 3% BSA block, 1 h (room temperature stated for coating and bl)
POLR2G [2] = target: T1, POLR2G; assay: ELISA; apparent Kd; 100 mM K+; ELISA: oligos folded in Tris-HCl pH 7.4, 100 mM KCl; ELISA buffer 100 mM KCl, 50 mM KH2PO4 pH 7.4, 3% BSA block, 1 h (room temperature stated for coating and bl)

Row | Binder | binding result (POLR2G [1]) | Kd (POLR2G [2]) [nM]
1 | CCATAATGCCAAGCTTGAGCACTGATTCCGACACTAGACCT (ssDNA) [HS2_G4_bMut] | no binding | –
2 | TGTGTGTGGATGTGTGACAAGTGAAATGTGTGA (ssDNA) [HS-40_G4_aMut] | no binding | –
3 | CCAGAAGCGGGGGTGGGGCACTGACCCCGACAGGGGCCT (structured_DNA) [HS2_G4_WT (bWT)] | – | 48.3
4 | TGGGGGTGGAGGTGGGACAAGGGAAAGGGGTGA (structured_DNA) [HS-40_G4_aWT] | – | 52.8

Reference: article PMC12139101, “DNA G-quadruplex structures act as functional elements in α- and β-globin enhancers”
